# Source: PMC8526979, “The predicted stem-loop structure in the 3′-end of the human norovirus antigenomic sequence is required for its genomic RNA synthesis by its RdRp” (The Journal of Biological Chemistry, 2021)
# What was measured:
# [1] = tested on: His-RdRp (NS7, RNA-dependent RNA polymerase) (Human norovirus GII.P3_GII.3 U201 strain); assay: competition; settings: 50 mM Tris-HCl pH 7.4, 1.7% glycerol, 5 mM beta-mercaptoethanol, 0.5 ug/ul yeast RNA, 30 C 10 min, 20 ul; native PAGE at 4 C
# [2] = target: T1, HuNV RdRp (His-RdRp; GII.P3 RdRp) (Norwalk-like virus, UniProt Q8JXI4); assay: RNA synthesis, dsRNA product after S1 nuclease, native PAGE with SYBR Green II; assay type: biochemical
# T1 construct: mature NS7 RdRp from ORF1 genome polyprotein, cDNA nt 3581-5113; N-terminal His6 tag (pET28b), E. coli ArcticExpress (DE3); 57 kDa by SDS-PAGE
Compound,binding signal (% complex remaining) [1],IC50 [2] [µM]
100AS RNA,13.5,–
31AS RNA,47.3,–
"C[C@@]1(O)[C@H](O)[C@@H](COP(=O)(O)OP(=O)(O)OP(=O)(O)O)O[C@H]1n1ccc(N)nc1=O [2′CM-CTP, 2′-C-methylcytidine triphosphate]",–,57 ± 20
